Values quoted from earlier work in publication PMC5512170.

Target: SNX27 PDZ (Homo sapiens) (UniProt Q96L92)
Assay: fluorescence polarization

Kd: 17 µM
Substance: ß2-AR tail C-tail (from UniProt P07550)
